Measurements reported in patent US20140087995A1 (published 2014).
Numbered stars: 1 amine (or outer) side, 2 acyl side, 3 side chain; on linkers, the order of the positions; unused ones are H or OH. Bridge positions count the residues as written; N and C are the ends. Side chains are listed from the residue outwards. Ends that are not written are not given here. * marks the point of attachment. C20 diacid = O=C(O)CCCCCCCCCCCCCCCCCCC(=O)*; γGlu = O=C(O)[C@H](CCC(=O)[*:2])N[*:1]; AEEA = NCCOCCOCC(=O)O

T1: human amylin receptor (amylin 3(a) receptor: human calcitonin receptor plus RAMP-3) (human, UniProt P30988 25-474; O60896 24-148, limits assumed)
T1 sequence (looked up) 1: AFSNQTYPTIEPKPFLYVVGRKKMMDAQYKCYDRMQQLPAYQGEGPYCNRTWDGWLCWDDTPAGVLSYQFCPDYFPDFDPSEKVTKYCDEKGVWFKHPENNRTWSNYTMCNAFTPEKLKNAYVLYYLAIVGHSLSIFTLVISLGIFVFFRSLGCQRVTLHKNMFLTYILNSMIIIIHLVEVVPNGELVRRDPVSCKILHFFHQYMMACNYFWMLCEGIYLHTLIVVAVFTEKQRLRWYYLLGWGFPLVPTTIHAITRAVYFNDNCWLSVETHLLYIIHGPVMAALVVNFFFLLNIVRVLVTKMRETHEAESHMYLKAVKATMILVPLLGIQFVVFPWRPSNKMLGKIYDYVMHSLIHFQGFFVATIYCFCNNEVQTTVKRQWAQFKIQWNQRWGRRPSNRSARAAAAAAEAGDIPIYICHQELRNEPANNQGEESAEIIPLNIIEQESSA
T1 sequence (looked up) 2: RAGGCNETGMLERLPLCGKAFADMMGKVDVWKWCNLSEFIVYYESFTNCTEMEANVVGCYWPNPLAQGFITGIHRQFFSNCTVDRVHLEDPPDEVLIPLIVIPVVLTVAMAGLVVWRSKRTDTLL

T2: human calcitonin receptor (human, UniProt P30988 25-474)
T2 sequence (looked up): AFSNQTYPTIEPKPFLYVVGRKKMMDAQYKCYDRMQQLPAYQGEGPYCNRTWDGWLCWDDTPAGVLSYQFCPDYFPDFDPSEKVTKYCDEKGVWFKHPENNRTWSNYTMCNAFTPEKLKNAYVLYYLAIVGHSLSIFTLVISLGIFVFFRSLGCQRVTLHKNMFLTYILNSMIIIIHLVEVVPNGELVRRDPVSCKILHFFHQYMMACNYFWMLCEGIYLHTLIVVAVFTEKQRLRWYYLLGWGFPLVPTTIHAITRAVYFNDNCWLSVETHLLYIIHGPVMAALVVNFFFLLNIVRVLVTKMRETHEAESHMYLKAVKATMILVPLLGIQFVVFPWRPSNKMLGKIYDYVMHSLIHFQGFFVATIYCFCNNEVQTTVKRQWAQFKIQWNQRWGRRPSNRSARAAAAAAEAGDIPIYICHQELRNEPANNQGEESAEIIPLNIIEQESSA


Experiments:
[1] = molecular target: T1, human amylin receptor (amylin 3(a) …); test: cell-based or functional assay
[2] = molecular target: T2, human calcitonin receptor; test: cell-based or functional assay

Row | Binder | hAmylin-R funct. EC50 [1] [nM] | Ratio hCT/hAmylin funct. (hCTR EC50 against hAmylin-R EC50) [2] | hCTR funct. EC50 [2] [nM]
1 | K([AEEA-AEEA-γGlu-C20 diacid])CNTATCATQRLANFLRHSSPNFGAIPSSTNVGSETY-NH2 (disulfide 2-7; N-terminus assumed; SMILES CC[C@H](C)[C@H](NC(=O)[C@H](C)NC(=O)CNC(=O)[C@H](Cc1ccccc1)NC(=O)[C@H](CC(N)=O)NC(=O)[C@@H]1CCCN1C(=O)[C@H](CO)NC(=O)[C@H](CO)NC(=O)[C@H](Cc1c[nH]cn1)NC(=O)[C@H](CCCNC(=N)N)NC(=O)[C@H](CC(C)C)NC(=O)[C@H](Cc1ccccc1)NC(=O)[C@H](CC(N)=O)NC(=O)[C@H](C)NC(=O)[C@H](CC(C)C)NC(=O)[C@H](CCCNC(=N)N)NC(=O)[C@H](CCC(N)=O)NC(=O)[C@@H](NC(=O)[C@H](C)NC(=O)[C@@H]1CSSC[C@H](NC(=O)[C@@H](N)CCCCNC(=O)COCCOCCNC(=O)COCCOCCNC(=O)CC[C@H](NC(=O)CCCCCCCCCCCCCCCCCCC(=O)O)C(=O)O)C(=O)N[C@@H](CC(N)=O)C(=O)N[C@@H]([C@@H](C)O)C(=O)N[C@@H](C)C(=O)N[C@@H]([C@@H](C)O)C(=O)N1)[C@@H](C)O)C(=O)N1CCC[C@H]1C(=O)N[C@@H](CO)C(=O)N[C@@H](CO)C(=O)N[C@H](C(=O)N[C@@H](CC(N)=O)C(=O)N[C@H](C(=O)NCC(=O)N[C@@H](CO)C(=O)N[C@@H](CCC(=O)O)C(=O)N[C@H](C(=O)N[C@@H](Cc1ccc(O)cc1)C(N)=O)[C@@H](C)O)C(C)C)[C@@H](C)O, also called compound 25) | 0.217 | 46.2 | 10
2 | K([AEEA-γGlu-C20 diacid])CNTATCATQRLANFLRHSSPNFGAIPSSTNVGSETY-NH2 (disulfide 2-7; N-terminus assumed; SMILES CC[C@H](C)[C@H](NC(=O)[C@H](C)NC(=O)CNC(=O)[C@H](Cc1ccccc1)NC(=O)[C@H](CC(N)=O)NC(=O)[C@@H]1CCCN1C(=O)[C@H](CO)NC(=O)[C@H](CO)NC(=O)[C@H](Cc1c[nH]cn1)NC(=O)[C@H](CCCNC(=N)N)NC(=O)[C@H](CC(C)C)NC(=O)[C@H](Cc1ccccc1)NC(=O)[C@H](CC(N)=O)NC(=O)[C@H](C)NC(=O)[C@H](CC(C)C)NC(=O)[C@H](CCCNC(=N)N)NC(=O)[C@H](CCC(N)=O)NC(=O)[C@@H](NC(=O)[C@H](C)NC(=O)[C@@H]1CSSC[C@H](NC(=O)[C@@H](N)CCCCNC(=O)COCCOCCNC(=O)CC[C@H](NC(=O)CCCCCCCCCCCCCCCCCCC(=O)O)C(=O)O)C(=O)N[C@@H](CC(N)=O)C(=O)N[C@@H]([C@@H](C)O)C(=O)N[C@@H](C)C(=O)N[C@@H]([C@@H](C)O)C(=O)N1)[C@@H](C)O)C(=O)N1CCC[C@H]1C(=O)N[C@@H](CO)C(=O)N[C@@H](CO)C(=O)N[C@H](C(=O)N[C@@H](CC(N)=O)C(=O)N[C@H](C(=O)NCC(=O)N[C@@H](CO)C(=O)N[C@@H](CCC(=O)O)C(=O)N[C@H](C(=O)N[C@@H](Cc1ccc(O)cc1)C(N)=O)[C@@H](C)O)C(C)C)[C@@H](C)O, also called compound 26) | 0.212 | 29.9 | 6.34
3 | K([γGlu-C20 diacid])CNTATCATQRLANFLRHSSPNFGAIPSSTNVGSKTY-NH2 (disulfide 2-7; N-terminus assumed; SMILES CC[C@H](C)[C@H](NC(=O)[C@H](C)NC(=O)CNC(=O)[C@H](Cc1ccccc1)NC(=O)[C@H](CC(N)=O)NC(=O)[C@@H]1CCCN1C(=O)[C@H](CO)NC(=O)[C@H](CO)NC(=O)[C@H](Cc1c[nH]cn1)NC(=O)[C@H](CCCNC(=N)N)NC(=O)[C@H](CC(C)C)NC(=O)[C@H](Cc1ccccc1)NC(=O)[C@H](CC(N)=O)NC(=O)[C@H](C)NC(=O)[C@H](CC(C)C)NC(=O)[C@H](CCCNC(=N)N)NC(=O)[C@H](CCC(N)=O)NC(=O)[C@@H](NC(=O)[C@H](C)NC(=O)[C@@H]1CSSC[C@H](NC(=O)[C@@H](N)CCCCNC(=O)CC[C@H](NC(=O)CCCCCCCCCCCCCCCCCCC(=O)O)C(=O)O)C(=O)N[C@@H](CC(N)=O)C(=O)N[C@@H]([C@@H](C)O)C(=O)N[C@@H](C)C(=O)N[C@@H]([C@@H](C)O)C(=O)N1)[C@@H](C)O)C(=O)N1CCC[C@H]1C(=O)N[C@@H](CO)C(=O)N[C@@H](CO)C(=O)N[C@H](C(=O)N[C@@H](CC(N)=O)C(=O)N[C@H](C(=O)NCC(=O)N[C@@H](CO)C(=O)N[C@@H](CCCCN)C(=O)N[C@H](C(=O)N[C@@H](Cc1ccc(O)cc1)C(N)=O)[C@@H](C)O)C(C)C)[C@@H](C)O, also called compound 35) [N^ε1-[(4S)-4-carboxy-4-(19-carboxynonadecanoylamino)butanoyl]-[Arg17,Pro21,Pro27,Lys35]-h-amylin] | 0.364 | 15 | 5.46
4 | K([AEEA-γGlu-C20 diacid])CNTATCATQRLANFLRHSSPNFGAIPSSTNVGSNTY-NH2 (disulfide 2-7; N-terminus assumed; SMILES CC[C@H](C)[C@H](NC(=O)[C@H](C)NC(=O)CNC(=O)[C@H](Cc1ccccc1)NC(=O)[C@H](CC(N)=O)NC(=O)[C@@H]1CCCN1C(=O)[C@H](CO)NC(=O)[C@H](CO)NC(=O)[C@H](Cc1c[nH]cn1)NC(=O)[C@H](CCCNC(=N)N)NC(=O)[C@H](CC(C)C)NC(=O)[C@H](Cc1ccccc1)NC(=O)[C@H](CC(N)=O)NC(=O)[C@H](C)NC(=O)[C@H](CC(C)C)NC(=O)[C@H](CCCNC(=N)N)NC(=O)[C@H](CCC(N)=O)NC(=O)[C@@H](NC(=O)[C@H](C)NC(=O)[C@@H]1CSSC[C@H](NC(=O)[C@@H](N)CCCCNC(=O)COCCOCCNC(=O)CC[C@H](NC(=O)CCCCCCCCCCCCCCCCCCC(=O)O)C(=O)O)C(=O)N[C@@H](CC(N)=O)C(=O)N[C@@H]([C@@H](C)O)C(=O)N[C@@H](C)C(=O)N[C@@H]([C@@H](C)O)C(=O)N1)[C@@H](C)O)C(=O)N1CCC[C@H]1C(=O)N[C@@H](CO)C(=O)N[C@@H](CO)C(=O)N[C@H](C(=O)N[C@@H](CC(N)=O)C(=O)N[C@H](C(=O)NCC(=O)N[C@@H](CO)C(=O)N[C@@H](CC(N)=O)C(=O)N[C@H](C(=O)N[C@@H](Cc1ccc(O)cc1)C(N)=O)[C@@H](C)O)C(C)C)[C@@H](C)O, also called compound 41) | 0.26 | 16.7 | 4.35
5 | K([γGlu-C20 diacid])CNTATCATQRLANFLRHSSPNFGAIPSSTNVGSETY-NH2 (disulfide 2-7; N-terminus assumed; SMILES CC[C@H](C)[C@H](NC(=O)[C@H](C)NC(=O)CNC(=O)[C@H](Cc1ccccc1)NC(=O)[C@H](CC(N)=O)NC(=O)[C@@H]1CCCN1C(=O)[C@H](CO)NC(=O)[C@H](CO)NC(=O)[C@H](Cc1c[nH]cn1)NC(=O)[C@H](CCCNC(=N)N)NC(=O)[C@H](CC(C)C)NC(=O)[C@H](Cc1ccccc1)NC(=O)[C@H](CC(N)=O)NC(=O)[C@H](C)NC(=O)[C@H](CC(C)C)NC(=O)[C@H](CCCNC(=N)N)NC(=O)[C@H](CCC(N)=O)NC(=O)[C@@H](NC(=O)[C@H](C)NC(=O)[C@@H]1CSSC[C@H](NC(=O)[C@@H](N)CCCCNC(=O)CC[C@H](NC(=O)CCCCCCCCCCCCCCCCCCC(=O)O)C(=O)O)C(=O)N[C@@H](CC(N)=O)C(=O)N[C@@H]([C@@H](C)O)C(=O)N[C@@H](C)C(=O)N[C@@H]([C@@H](C)O)C(=O)N1)[C@@H](C)O)C(=O)N1CCC[C@H]1C(=O)N[C@@H](CO)C(=O)N[C@@H](CO)C(=O)N[C@H](C(=O)N[C@@H](CC(N)=O)C(=O)N[C@H](C(=O)NCC(=O)N[C@@H](CO)C(=O)N[C@@H](CCC(=O)O)C(=O)N[C@H](C(=O)N[C@@H](Cc1ccc(O)cc1)C(N)=O)[C@@H](C)O)C(C)C)[C@@H](C)O, also called compound 27) [N^ε1-[(4S)-4-carboxy-4-(19-carboxynonadecanoylamino)butanoyl]-[Arg17,Pro21,Pro27,Glu35]-h-amylin] | 0.133 | 22.6 | 3
6 | K([γGlu-γGlu-C20 diacid])CNTATCATQRLADFLRHSSPNFGAIPSSTNVGSDTY-NH2 (disulfide 2-7; N-terminus assumed; SMILES CC[C@H](C)[C@H](NC(=O)[C@H](C)NC(=O)CNC(=O)[C@H](Cc1ccccc1)NC(=O)[C@H](CC(N)=O)NC(=O)[C@@H]1CCCN1C(=O)[C@H](CO)NC(=O)[C@H](CO)NC(=O)[C@H](Cc1c[nH]cn1)NC(=O)[C@H](CCCNC(=N)N)NC(=O)[C@H](CC(C)C)NC(=O)[C@H](Cc1ccccc1)NC(=O)[C@H](CC(=O)O)NC(=O)[C@H](C)NC(=O)[C@H](CC(C)C)NC(=O)[C@H](CCCNC(=N)N)NC(=O)[C@H](CCC(N)=O)NC(=O)[C@@H](NC(=O)[C@H](C)NC(=O)[C@@H]1CSSC[C@H](NC(=O)[C@@H](N)CCCCNC(=O)CC[C@H](NC(=O)CC[C@H](NC(=O)CCCCCCCCCCCCCCCCCCC(=O)O)C(=O)O)C(=O)O)C(=O)N[C@@H](CC(N)=O)C(=O)N[C@@H]([C@@H](C)O)C(=O)N[C@@H](C)C(=O)N[C@@H]([C@@H](C)O)C(=O)N1)[C@@H](C)O)C(=O)N1CCC[C@H]1C(=O)N[C@@H](CO)C(=O)N[C@@H](CO)C(=O)N[C@H](C(=O)N[C@@H](CC(N)=O)C(=O)N[C@H](C(=O)NCC(=O)N[C@@H](CO)C(=O)N[C@@H](CC(=O)O)C(=O)N[C@H](C(=O)N[C@@H](Cc1ccc(O)cc1)C(N)=O)[C@@H](C)O)C(C)C)[C@@H](C)O, also called compound 2) | 0.182 | 16.4 | 3
